Measurements from ChEMBL document CHEMBL1122882, “3,4-O-diacetylisoproterenol. Preparation, structure proof, and beta-receptor effect” (1985).

Assays:
[1] = system: CC(=O)Oc1ccc(C(O)CNC(C)C)cc1OC(C)=O; conditions: Cerebral cortex
Description: (§1) Evaluated for the affinity in stimulating cAMP synthesis by beta-1 adrenergic receptor in rat cerebral cortex.

[2] = system: CC(=O)Oc1ccc(C(Cl)CNC(C)C)cc1OC(C)=O; conditions: Cerebral cortex
Description: as §1

Sequence of Beta-1 adrenergic receptor (Rattus norvegicus), P18090 (P18090 whole entry): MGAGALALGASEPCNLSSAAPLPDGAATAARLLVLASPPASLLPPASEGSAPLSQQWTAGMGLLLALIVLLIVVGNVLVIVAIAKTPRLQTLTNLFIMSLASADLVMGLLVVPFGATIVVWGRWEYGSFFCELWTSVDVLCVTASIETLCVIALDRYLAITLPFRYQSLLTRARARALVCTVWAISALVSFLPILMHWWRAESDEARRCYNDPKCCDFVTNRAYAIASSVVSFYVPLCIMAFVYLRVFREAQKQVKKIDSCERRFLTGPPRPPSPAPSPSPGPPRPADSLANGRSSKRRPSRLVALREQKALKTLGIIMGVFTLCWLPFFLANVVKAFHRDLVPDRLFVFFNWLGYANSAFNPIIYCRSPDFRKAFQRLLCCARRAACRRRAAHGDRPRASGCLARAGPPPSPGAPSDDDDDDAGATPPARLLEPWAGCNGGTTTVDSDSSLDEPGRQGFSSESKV

Beta-1 adrenergic receptor (Rattus norvegicus), P18090
Km [1]: 25 µM | Km [2]: 28 µM
